Test results reported in PMC10329633, “Molecular basis and design principles of switchable front-rear polarity and directional migration in Myxococcus xanthus” (Nature Communications, 2023).
Values joined by “and” are separate entries in the source; they are usually repeats but may differ in a detail not shown here. Identical values can stand only once. Blank lines part the entries; values can stand above or below the molecule they belong to.

Tests used:
[1] = molecular target: MalE-MglC (Myxococcus xanthus); assay: mass photometry; single proteins in solution, diluted into phosphate-buffered saline; MalE-RomR and MalE-RomR^C at 25 nM and 50 nM
[2] = molecular target: MalE-RomR (Myxococcus xanthus); assay: as above
[3] = molecular target: MalE-MglC (Myxococcus xanthus); assay: mass photometry; mixtures of MalE-MglC with MalE-RomR or MalE-RomR^C in solution, diluted into phosphate-buffered saline
[4] = molecular target: MalE-RomR^C (Myxococcus xanthus); assay: mass photometry; single proteins in solution, diluted into phosphate-buffered saline; MalE-RomR and MalE-RomR^C at 25 nM and 50 nM
[5] = molecular target: T1, MglA-His6 (Myxococcus xanthus, UniProt Q1DB04 1-195); assay: pull-down; Strep-MglC as bait on Strep-Tactin beads; 40 µM GppNHp in all buffers; without or with MglA-His6 preincubated with GppNHp; proteins 10 µM; MglB detected by immunoblot with α-MglB; details: both partners purified
T1 construct: MglA, small GTPase of Myxococcus xanthus; Preloaded with GTP, GppNHp or GDP (40 µM) according to the experiment; the nucleotide is named in the assay's format; also called MglA-GTP; source: E. coli Rosetta 2(DE3), purified (Ni-NTA, Superdex 75 gel filtration); not shown: His6, C-terminal, kept
T1 sequence: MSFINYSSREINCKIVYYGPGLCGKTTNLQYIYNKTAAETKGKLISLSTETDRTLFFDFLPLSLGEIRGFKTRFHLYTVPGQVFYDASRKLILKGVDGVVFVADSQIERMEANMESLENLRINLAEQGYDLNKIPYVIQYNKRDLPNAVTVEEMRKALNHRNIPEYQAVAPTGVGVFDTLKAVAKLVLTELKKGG

stoichiometry N [1]: 2
Molecule: MalE-MglC (natural protein)

stoichiometry N [2]: 2 and 3 | stoichiometry N (RomR per MglC (printed as 2:2)) [3]: 1 | stoichiometry N (RomR per MglC (printed as 3:2)) [3]: 1.5
Molecule: MalE-RomR (natural protein)

stoichiometry N [4]: 2 and 3 | stoichiometry N (RomR^C per MglC (printed as 2:2)) [3]: 1 | stoichiometry N (RomR^C per MglC (printed as 3:2)) [3]: 1.5
Molecule: MalE-RomR^C (domain or fragment)

binding result [5]: binds
B1: His6-MglB (natural protein, Myxococcus xanthus)
chain: MGTQLVMYEEEFTKINAVCDRLTKDANAKVVFLVDKNGQLISSAGQTQNIDTTSLASLTAGNVAAMGGLAKLIGENEFPNQFHEGAKDSLYMTIVGSRVVLVVIFDNRTSLGLVRLRIKKASDELTKIFESLVKKTDSPGAGSPFAEISDDDIDNLFSE
notes: also called MglB-His6; MglB^WT; source: E. coli Rosetta 2(DE3), purified (Ni-NTA, Superdex 75 gel filtration); not shown: His6, N-terminal, kept
